Assay results as given in US6071515.

Biological target: Bovine submaxillary mucin (BSM) (bovine)
Assay: binding of the 125I-labelled protein to BSM

Substance | Percent Activity (as determined by BSM binding)
CC49, murine monoclonal antibody specific to TAG-72 (ATCC No. HB9459) | 96 percent
ChCC49 Fab | 64 percent
